Here are results for 4 molecules from US20250009854A1 (MACFARLANE BURNET INSTITUTE FOR MEDICAL RESEARCH AND PUBLIC …, published 2025).

The target in test [1] is T1, dimeric rsFcγRIIIa (V158 form) (UniProt P08637 17-208).
T1 construct: also called dimeric recombinant soluble FcγRIIIa
The test can be described thus: flow cytometry, biotinylated dimeric rsFcγRIIIa + streptavidin-APC on Ramos-S cells opsonised with 5 µg/ml ACE2-Fc.

Test [2] addresses T2, dimeric rsFcγRIIa (H131 allelic form) (UniProt P12318 34-217).
T2 construct: also called dimeric recombinant soluble FcγRIIa
T2 sequence: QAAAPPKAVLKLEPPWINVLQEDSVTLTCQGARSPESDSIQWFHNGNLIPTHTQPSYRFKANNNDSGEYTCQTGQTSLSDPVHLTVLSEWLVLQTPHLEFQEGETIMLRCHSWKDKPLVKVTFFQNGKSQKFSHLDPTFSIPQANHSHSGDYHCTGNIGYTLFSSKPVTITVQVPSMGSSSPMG
The test can be described thus: flow cytometry, biotinylated dimeric rsFcγRIIa + streptavidin-APC on Ramos-S cells opsonised with 5 µg/ml ACE2-Fc.

The target in test [3] is T2, dimeric rsFcγRIIa (H131 allelic form). Nature of the test: flow cytometry, biotinylated dimeric rsFcγRIIa + streptavidin-APC on Ramos-S cells opsonised with ACE2-Fc.
The target of test [4] is T3, SARS-CoV-2 spike protein on Ramos-S cells (SARS-CoV-2, UniProt P0DTC2 14-1273).
T3 construct: whole, on cells
Nature of the test: flow cytometry on Ramos-S cells, FITC anti-hIgG-Fc.

T1 sequence (P08637 17-208 F176V limits assumed): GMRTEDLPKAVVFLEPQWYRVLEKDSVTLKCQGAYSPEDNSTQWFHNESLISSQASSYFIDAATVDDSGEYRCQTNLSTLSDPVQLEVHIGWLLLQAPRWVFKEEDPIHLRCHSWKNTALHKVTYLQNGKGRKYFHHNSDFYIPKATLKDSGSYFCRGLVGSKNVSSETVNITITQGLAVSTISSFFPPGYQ

B1: EflACE2-Fc-[change] (Fc fusion)
chain: ETGSTIEEQAKYFLDKFNHEAEDLFYQSSLASWNYNTNITEENVQNMNNAGDKWSAFLKEQSTTAQMYPLQEIQNLTVKLQLQALQQNGSSVLSEDKSKRLNTILNTMSTIYSTGKVCNPDNPQECLLLEPGLNEIMANSLDYNERLWAWESWRSEVGKQLRPLYEEYVVLKNEMARANHYEDYGDYWRGDYEVNGVDGYDYSRGQLIEDVEHTFEEIKPLYEHLHAYVRAKLMNAYPSYISPIGCLPAHLLGDMWGRFWTNLYSLTVPFGQKPNIDVTDAMVDQAWDAQRIFKEAEKFFVSVGLPNMTQGFWEYSMLTDPGNVQKAVCHPTAWDLGKGDFRILMCTKVTMDDFLTAHHEMGHIQYDMAYAAQPFLLRNGANEGFHEAVGEIMSLSAATPKHLKSIGLLSPDFQEDNETEINFLLKQALTIVGTLPFTYMLEKWRWMVFKGEIPKDQWMKKWWEMKREIVGVVEPVPHDETYCDPASLFHVSNDYSFIRYYTRTLYQFQFQEALCQAAKHEGPLHKCDISNSTEAGQKLFNMLRLGKSEPWTLALENVVGAKNMNVRPLLNYFEPLFTWLKDQNKNSFVGWSTDWSPYADQSIKVRISLKSALGDRAYEWNDNEMYLFRSSVAYAMRQYFLKVKNQMILFGEEDVRVANLKPRISFNFFVTAPKNVSDIIPRTEVEKAIRMSRSRINDAFRLNDNSLEFLGIQPTLGPPNQPPVSGGGGSTHTCPPCPAPELLGGPSVFLFPPKPKDTLMISRTPEVTCVVVDVSHEDPEVKFNWYVDGVEVHNAKTKPREEQYNSTYRVVSVLTVLHQDWLNGKEYKCKVSNKALPAPIEKTISKAKGQPREPQVYTLPPSREEMTKNQVSLTCLVKGFYPSDIAVEWESNGQPENNYKTTPPVLDSDGSFFLYSKLTVDKSRWQQGNVFSCSVMFEALHNHYTQKSLSLSPGK
As to B1, the binding result in test [1] and in test [2] was “binds” each time.

B2: EflACE2-Fc-[change] (Fc fusion)
chain: ETGSTIEEQAKYFLDKFNHEAEDLFYQSSLASWNYNTNITEENVQNMNNAGDKWSAFLKEQSTTAQMYPLQEIQNLTVKLQLQALQQNGSSVLSEDKSKRLNTILNTMSTIYSTGKVCNPDNPQECLLLEPGLNEIMANSLDYNERLWAWESWRSEVGKQLRPLYEEYVVLKNEMARANHYEDYGDYWRGDYEVNGVDGYDYSRGQLIEDVEHTFEEIKPLYEHLHAYVRAKLMNAYPSYISPIGCLPAHLLGDMWGRFWTNLYSLTVPFGQKPNIDVTDAMVDQAWDAQRIFKEAEKFFVSVGLPNMTQGFWEYSMLTDPGNVQKAVCHPTAWDLGKGDFRILMCTKVTMDDFLTAHHEMGHIQYDMAYAAQPFLLRNGANEGFHEAVGEIMSLSAATPKHLKSIGLLSPDFQEDNETEINFLLKQALTIVGTLPFTYMLEKWRWMVFKGEIPKDQWMKKWWEMKREIVGVVEPVPHDETYCDPASLFHVSNDYSFIRYYTRTLYQFQFQEALCQAAKHEGPLHKCDISNSTEAGQKLFNMLRLGKSEPWTLALENVVGAKNMNVRPLLNYFEPLFTWLKDQNKNSFVGWSTDWSPYADQSIKVRISLKSALGDRAYEWNDNEMYLFRSSVAYAMRQYFLKVKNQMILFGEEDVRVANLKPRISFNFFVTAPKNVSDIIPRTEVEKAIRMSRSRINDAFRLNDNSLEFLGIQPTLGPPNQPPVSGGGGSTHTCPPCPAPELLGGPSVFLFPPKPKDTLMISRTPEVTCVVVDVSHEDPEVKFNWYVDGVEVHNAKTKPREEQYNSTYRVVSVLTVLHQDWLNGKEYKCKVSNKALPAPIEKTISKAKGQPREPQVYTLPPSREEMTKNQVSLTCLVKGFYPSDIAVEWESNGQPENNYKTTPPVLDSDGSFFLYSKLTVDKSRWQQGNVFSCSVMYEALHNHYTQKSLSLSPGK
In the case of B2, the binding result in test [3] is given as “no binding (tested: 5 µg/ml ACE2-Fc for opsonisation)”.

B3: CC40.8-WT mAb (antibody, V domains shown)
VH: EVQLLESGGGLVQPGGSLRLSCAASGFTFSSYVMTWARQAPGKGLEWVSAISGTGYTYYADSVKGRFTVSRDNSKNTLFLQMSSLRAEDTAVYYCAITMAPVVWGQGTTVTVSS
VL: SYELTQPPSVSVSPGQTARITCSGDALPKRYAYWYQQKSGQAPILVIYEDKKRPSGIPERLSGSKSGTVATLTISGAQVEDEADYYCYSTDSSGNHAVFGGGTQLTVLG
With B3, the binding result in test [4] was “binds”.

B4: S2P6-WT mAb (antibody, V domains shown)
VH: EVQLVQSGAEVKKPGASVKVSCKASGYTFTSQYMHWVRQAPGQGLEWIGIINPSGVHTSYAQKFQGRVTLTRDTSTSTLYMELSSLRSEDTAVYYCARGSPKGAFDYWGQGTLVTVSS
VL: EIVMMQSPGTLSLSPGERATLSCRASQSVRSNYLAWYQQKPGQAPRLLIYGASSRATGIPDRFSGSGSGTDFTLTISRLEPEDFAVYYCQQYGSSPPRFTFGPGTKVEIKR
Consider B4, for which, in test [4], the binding result is reported as “binds”.
